Biological target: the molecule itself
Test: crystal structure; hanging-drop vapour diffusion at 20°C; SFPQ-276-535 L534I (His6-tag removed) mixed 1:1 with RXRα-DBD-130-228 as source of Zn(II); reservoir 0.1 M MES (pH 6.0), 0.2 M calcium chloride, 12% (w/v) PEG 4000; space group P2(1), two protein molecules per asu; 1.83 Å

B1: SFPQ-276-535 L534I (dimerization domain of human splicing factor proline- and glutamine-rich, fALS-associated L534I variant) (domain or fragment, UniProt P23246 276-535, looked up)
chain: EGFKANLSLLRRPGEKTYTQRCRLFVGNLPADITEDEFKRLFAKYGEPGEVFINKGKGFGFIKLESRALAEIAKAELDDTPMRGRQLRVRFATHAAALSVRNLSPYVSNELLEEAFSQFGPIERAVVIVDDRGRSTGKGIVEFASKPAARKAFERCSEGVFLLTTTPRPVIVEPLEQLDDEDGLPEKLAQKNPMYQKERETPPRFAQHGTFEYEYSQRWKSLDEMEKQQREQVEKNMKDAKDKLESEMEDAYHEHQANIL
notes: also called SFPQ L534I
- binding result: binds
